Measurements reported in PMC4547048.

Substrate: CC(C)C[C@H](N)C(=O)Nc1ccc([N+](=O)[O-])cc1
Assay: purified protein
Type: biochemical, Anopheles gambiae
Settings: 1 mM MnCl2, pH 7.5, 10 mM Tris-HCl, 150 mM NaCl, 25 °C

B1: AnAPN1 (near full-length recombinant, rFL-APN1) (Anopheles gambiae) (protein)
chain: PPYKSSGIYEEEPQLPGASDLSGGVASDEIGVAPAQAVDERYRLPTTSIPIHYDLHLRTEIHRNERTFTGTVGIQLQVVQATDKLVMHNRGLVMSSAKVSSLPNGVTGAPTLIGDVQYSTDTTFEHITFTSPTILQPGTYLLEVAFQGRLATNDDGFYVSSYVADNGERRYLATTQFESTSARMAFPCYDEPGLKATFTVSITHSLSYKAISNMPQKTTTDIETDMRTTFFEKTPAMSTYLLAFVVSDFQLRLSGAQRVYVRPNAFNEATFALEAGVKILKVLDDHLGIPYDTYMPKLDQIAIPDFAAGAMENWGLVTYREQALLFNPAVSTYRGKTNVATTIAHEYAHQWFGNLVSPEWWEYIWLNEGFATLYEFYALDMAYPGQEYWELFNQQVIQYAMGQDGQASTRPMNWNAATPGEISALFDRVAYDKSGSVLNMMRHVLGDDNWKAGLKAYLTDRALQGAVDEQLYAGLQSAIEGKGVLPNGVTVAQIMRTWTNEAGYPVLNVRRSYDTGDVIISQERFYNDRKVPNTNIWMIPYNYVHQAKADFNEFDDFQWLATKAARIETTVPANEWIVFNKQQVGYYRVNYDEHNWELITNALHENWASIHRLNRAQLIDDAYWLARSGRLDLRVALRFMTYLRNEREYAPWTAANVALTYFNNRLRGTAEYHNFLIFVDALIEDIYSLLTIDAVSPDDTLLHKYLVQTISTWACSMGYTDCLMKTAALLKAEASGTGPAVHPDIASVTYCYGMRSALESEFQYLYRKMMNSKNLAERTMLIDSLGCSNNKEFLKAFLTTALGSGTGVEINYRADERRRVVQAIYSGGRTGVDALIEFLMDPALVNEFVSTLSTSTLNSALSAIASRTNNVEEMNKLNALITALGSRVNSQTAANLRTTAQANLDWVNGFEGLMLSNFLAE
With B1 the Km was 1840 µM.
